{
  "source": "patent US20240076396A1",
  "about": "(Regeneron, published 2024)",
  "binders": {"B1": {"name": "mAb1 (antibody, human IgG1, kappa, V domains shown)", "VH": "QVQLQESGPGLVKPSETLSLTCIVSGGSISGYFWNWIRQPPGKGLEWIGYIYYSGTTIYNPSLKSRFTISLDTSKNQFSLKLTSVTAADTAVYYCARESYDPSPRYFDHWGQGTLVTVSS", "VL": "not shown", "notes": "Human IgG1; N101D variant of CompAb1; also called N101D Variant; N101D"}},
  "key": {"[1]": {"target": "T1, human GITR expressed on the cell surface (human, UniProt Q9Y5U5 26-241)", "T1 construct": "also called hGITR; Jurkat/hCD20/hGITR cells", "T1 sequence": "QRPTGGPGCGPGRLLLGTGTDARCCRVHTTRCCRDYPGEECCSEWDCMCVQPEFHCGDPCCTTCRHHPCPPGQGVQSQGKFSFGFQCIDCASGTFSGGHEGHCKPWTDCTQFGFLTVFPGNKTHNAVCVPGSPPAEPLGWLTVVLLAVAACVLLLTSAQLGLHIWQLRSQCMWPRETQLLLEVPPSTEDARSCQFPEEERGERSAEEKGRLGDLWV", "assay": "flow cytometry on Jurkat/hCD20/hGITR cells; max MFI over secondary antibody alone", "method": "Flow cytometry was used to evaluate mAb1 binding to Jurkat/hCD20/hGITR cells and Jurkat/hCD20/MfGITR cells. Jurkat/hCD20 cells were used as a negative control cell line for GITR binding. Cells were added to a 96-well V-bottom plate (2×10⁵ to 4×10⁵ cells/well) and incubated in Fc block solution, followed by successive incubation on ice with primary antibody (mAb1 or IgG1 isotype control) at final concentrations ranging from 18 pM to 300 nM and a secondary antibody (AF647-conjugated anti-human IgG) at 5 μg/mL. Cells were then stained with LIVE/DEAD Fixable Green Dead Cell Stain according to the manufacturer's instructions. […] Data were analyzed with Flow.lo software. For EC₅₀ (effective concentration at 50% activity) determinations, measured geometric MFI values were analyzed using a 4-parameter logistic equation over a 9-point response curve with GraphPad Prism. The fold binding was determined by taking the ratio of the highest MFI on the curve to the MFI of the wells containing secondary antibody only.\n^a The maximum MFI was the highest mean MFI value within the concentration range tested (18 pM to 300 nM). ^b Fold binding was calculated as the maximum MFI above background (secondary antibody alone). h, Human; Mf, Macaca fascicularis (cynomolgus monkey); ND, Not determined because concentration-dependent binding was not observed"}, "[2]": {"target": "T2, cynomolgus monkey GITR expressed on the cell surface (Macaca fascicularis (cynomolgus monkey))", "assay": "cell-based or functional assay"}, "[3]": {"target": "T1, human GITR expressed on the cell surface", "assay": "cell-based or functional assay"}, "[4]": {"target": "T3, hGITR.mmH (soluble monomeric recombinant human GITR ectodomain protein) (human)", "T3 construct": "also called monomeric human GITR", "T3 chain": "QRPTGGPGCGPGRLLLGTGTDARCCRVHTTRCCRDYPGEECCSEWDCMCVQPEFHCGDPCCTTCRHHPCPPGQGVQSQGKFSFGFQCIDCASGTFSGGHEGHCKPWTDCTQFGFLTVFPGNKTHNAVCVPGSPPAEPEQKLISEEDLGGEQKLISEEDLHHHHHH", "assay": "SPR Biacore T-200; purified antibody captured on anti-human Fc; 10 nM hGITR.mmH", "method": "For purified antibodies, Biacore experiments were performed as follows. Using a Biacore T-200 instrument, antibodies were captured for 30 seconds at a flow rate of 8 uL/min on a CM5 anti-humanFc-coupled surface. Approximately 120 RU of each antibody were captured. 10 nM hGITR.mmH (soluble monomeric hGITR, SEQ ID NO: 45) or 5 nM hGITR.mFc (dimeric Macaca fasicularis GITR, SEQ ID NO: 46) were injected over this surface for 5 minutes at a flow rate of 50 uL/min. Dissociation was measured for 10 min. The KD and t_{1/2} were calculated by fitting the double-referenced sensorgrams to a 1:1 binding model."}, "[5]": {"target": "T4, Jurkat/hCD20 cells (human CD20, no GITR; negative control cell line) (human, UniProt P11836 1-297)", "T4 sequence (looked up)": "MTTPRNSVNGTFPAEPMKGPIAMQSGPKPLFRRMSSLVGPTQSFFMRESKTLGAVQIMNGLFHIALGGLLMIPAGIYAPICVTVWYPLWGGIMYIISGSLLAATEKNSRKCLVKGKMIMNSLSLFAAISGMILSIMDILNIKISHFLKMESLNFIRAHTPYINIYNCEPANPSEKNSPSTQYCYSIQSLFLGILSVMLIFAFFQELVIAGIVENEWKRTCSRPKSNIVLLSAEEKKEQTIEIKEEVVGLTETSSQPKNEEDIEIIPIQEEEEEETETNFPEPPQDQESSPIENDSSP", "assay": "cell-based or functional assay"}, "[6]": {"target": "T2, cynomolgus monkey GITR expressed on the …", "assay": "cell-based or functional assay", "remark": "listed apart in the source"}, "[7]": {"target": "T1, human GITR expressed on the cell surface", "assay": "cell-based or functional assay", "remark": "listed apart in the source"}},
  "data": [
    {"binder": "B1", "values": [
      {"measurement": "Fold Binding", "setting": "[1]", "result": 290, "unit": "fold"},
      {"measurement": "EC50, ADCP of Jurkat/hCD20/MfGITR", "setting": "[2]", "result": 0.51, "unit": "nM"},
      {"measurement": "Fold Change in Activity, ADCP of Jurkat/hCD20/MfGITR", "setting": "[2]", "result": 6.98, "unit": "fold"},
      {"measurement": "Fold Change in Activity, ADCP of Jurkat/hCD20/hGITR", "setting": "[3]", "result": 5.92, "unit": "fold"},
      {"measurement": "Kd", "setting": "[4]", "result": 1.18, "unit": "nM"},
      {"measurement": "t1/2", "setting": "[4]", "result": 7.58, "unit": "min"},
      {"measurement": "Fold Change in Activity, NFAT-luciferase in Jurkat/NFAT-Luc/MfFcγR3a effector cells with Jurkat/hCD20 target cells", "setting": "[5]", "result": 1.02, "unit": "fold"},
      {"measurement": "Fold Change in Activity, NFAT-luciferase in Jurkat/NFAT-Luc/hFcγR3a effector cells with Jurkat/hCD20 target cells", "setting": "[5]", "result": 1.01, "unit": "fold"},
      {"measurement": "EC50, NFAT-luciferase in Jurkat/NFAT-Luc/MfFcγR3a effector cells with Jurkat/hCD20/MfGITR target cells", "setting": "[6]", "result": 0.016, "unit": "nM"},
      {"measurement": "Fold Change in Activity, NFAT-luciferase in Jurkat/NFAT-Luc/MfFcγR3a effector cells with Jurkat/hCD20/MfGITR target cells", "setting": "[6]", "result": 23.9, "unit": "fold"},
      {"measurement": "EC50, NFAT-luciferase in Jurkat/NFAT-Luc/hFcγR3a effector cells with Jurkat/hCD20/hGITR target cells", "setting": "[7]", "result": 0.032, "unit": "nM"},
      {"measurement": "Fold Change in Activity, NFAT-luciferase in Jurkat/NFAT-Luc/hFcγR3a effector cells with Jurkat/hCD20/hGITR target cells", "setting": "[7]", "result": 38, "unit": "fold"}
    ]}
  ]
}
